Here are results for one substance from article PMC3645317.

The assay deals with gHΔTM-Fc/gL (Kaposi's sarcoma-associated herpesvirus (KSHV)).

Sequence of solEphA2-Fc (P29317 25-534): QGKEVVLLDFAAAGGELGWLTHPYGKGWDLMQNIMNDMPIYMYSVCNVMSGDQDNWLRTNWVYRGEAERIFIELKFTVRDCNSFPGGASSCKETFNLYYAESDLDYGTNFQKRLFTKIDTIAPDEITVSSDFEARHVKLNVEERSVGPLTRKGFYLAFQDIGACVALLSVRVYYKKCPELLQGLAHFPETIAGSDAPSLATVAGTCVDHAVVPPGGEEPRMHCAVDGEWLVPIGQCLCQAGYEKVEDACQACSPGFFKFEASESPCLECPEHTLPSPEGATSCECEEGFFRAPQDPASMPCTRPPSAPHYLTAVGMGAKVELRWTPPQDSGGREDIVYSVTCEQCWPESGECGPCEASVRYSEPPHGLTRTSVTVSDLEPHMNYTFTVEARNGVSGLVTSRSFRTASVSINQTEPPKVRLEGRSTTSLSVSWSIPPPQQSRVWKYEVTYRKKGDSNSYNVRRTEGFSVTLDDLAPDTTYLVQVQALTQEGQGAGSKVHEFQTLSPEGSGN

“solEphA2-Fc (from UniProt P29317-1 25-534) (Fc fusion)” yielded an inhibition of KSHV infection of 293T cells by solEphA2-Fc at 2 µg/ml of 80%.
